{
  "source": "patent US11324837B2",
  "about": "“Hybrid membrane-coated nanoparticle composites and methods of making and using the same” (Portland State University, priority 2016, dated 2022)",
  "target": "T1, TAMRA-Aβ1-42 (Homo sapiens, UniProt P05067)",
  "T1 construct": "fluorophore-labeled Aβ (TAMRA-Aβ1-42)",
  "T1 sequence (P05067 672-713)": "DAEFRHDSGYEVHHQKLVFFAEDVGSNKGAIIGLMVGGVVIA",
  "assay": "Fluorescence anisotropy of Aβ binding to AuNP surface",
  "conditions": "intrinsic, free peptide",
  "from_the_text": "Fluorescence anisotropy also confirmed Aβ binding to AuNP surface. This technique reports on the change in the molecular rotation of the dye attached to the free TAMRA-Aβ1-42 peptide and when it binds to something larger than itself under polarized light. The steady-state anisotropy (r) is derived from the following equation in which r=(IVV−GIVH)/(IVV+2GIVH), where IVV and IVH are the fluorescence intensities, the subscripts indicate the orientation of the excitation and emission polarizer's, and G=IHV/IHH is the wavelength dependent sensitivity of the instrument. In a typical experiment the intrinsic anisotropy of TAMRA-Aβ1-42 (ravg=0.12) increases in the presence of Au-SOA-PC-HT (ravg=0.35) (FIG. 18). The resulting change in anisotropy (Δr=0.23) is due to a large change in the hydrodynamic radius (size) of the small TAMRA-Aβ1-42 when it binds to the much larger Au-SOA-PC-HT nanoparticles. […] Note that Cu^II pre-incubated with TAMRA-Aβ1-42 when added to Au-SOA-PC-HT has the same 0.11 change in anisotropy (FIG. 18). Possible explanations for the additional increase in r include metal ion reassembly of peptides bound to the membrane or bridging interactions between the Au-SOA-PC-HT-TAMRA-Aβ1-42 species. Alternatively, metals could arrange TAMRA-Aβ1-42 within the membrane bilayer to slow its molecular rotation. […]",
  "data": [
    {"substance": "TAMRA-Aβ1-42: fluorophore-labeled Aβ", "values": [
      {"measurement": "steady-state anisotropy ravg of TAMRA-Aβ1-42", "value": 0.12}
    ]}
  ]
}
